Measurements from the supplement of paper PMC9112550, “Optimization of the antimicrobial peptide Bac7 by deep mutational scanning” (BMC Biology, 2022).

System: Escherichia coli TOP10
Test: shrunken log2 fold change of peptide-encoding DNA abundance (4.5 h post-induction vs induction); higher = less antimicrobial activity (less host growth inhibition)
Details: time post-induction: 4.5 h; library: site-saturation at positions 5, 18, 19, 20
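Also: peptides expressed intracellularly from a pBAD plasmid library in pooled LB shake-flask culture, induced with 0.3% L-arabinose, DNA abundance read by NGS, three biological replicates, DESeq2 with apeglm shrinkage.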

| Sequence | shrunken log2 fold change |
| --- | --- |
| RRIRSRPPRLPRPRPRPGISPRP | -0.486 |
| RRIRLRPPRLPRPRPRPQFSPRP | -0.907 |
| RRIRQRPPRLPRPRPRPQSFPRP | -0.0179 |
| RRIRGRPPRLPRPRPRPPERPRP | 1.02 |
| RRIRERPPRLPRPRPRPAYQPRP | 0.0953 |
| RRIRWRPPRLPRPRPRPHRMPRP | -0.203 |
| RRIRPRPPRLPRPRPRPLSPPRP | -0.113 |
| RRIRQRPPRLPRPRPRPWNAPRP | 0.00391 |
| RRIRYRPPRLPRPRPRPNCVPRP | -0.0116 |
| RRIRTRPPRLPRPRPRPRMSPRP | -0.259 |
| RRIRQRPPRLPRPRPRPRTIPRP | 0.122 |
| RRIRFRPPRLPRPRPRPNYVPRP | -0.492 |
| RRIRFRPPRLPRPRPRPHNLPRP | -0.104 |
| RRIRWRPPRLPRPRPRPPGCPRP | 0.975 |
| RRIRVRPPRLPRPRPRPHDAPRP | -0.141 |
| RRIRSRPPRLPRPRPRPLDKPRP | -0.233 |
| RRIRARPPRLPRPRPRPMIEPRP | 0.314 |
| RRIRTRPPRLPRPRPRPQFNPRP | -0.226 |
| RRIRWRPPRLPRPRPRPTPCPRP | 0.212 |
| RRIRCRPPRLPRPRPRPGGPPRP | 0.108 |
| RRIRFRPPRLPRPRPRPIMFPRP | -0.0164 |
| RRIRKRPPRLPRPRPRPWKLPRP | -0.14 |
| RRIRNRPPRLPRPRPRPFSGPRP | -0.277 |
| RRIRYRPPRLPRPRPRPWVLPRP | -0.223 |
| RRIRYRPPRLPRPRPRPPGTPRP | -0.146 |

| Sequence | shrunken log2 fold change |
| --- | --- |
| RRIRCRPPRLPRPRPRPLPLPRP | -0.0103 |
| RRIRIRPPRLPRPRPRPAHPPRP | 0.239 |
| RRIRSRPPRLPRPRPRPWPKPRP | 0.228 |
| RRIRSRPPRLPRPRPRPHCRPRP | -0.172 |
| RRIRHRPPRLPRPRPRPYPGPRP | -0.216 |
| RRIRIRPPRLPRPRPRPHKSPRP | -1.18 |
| RRIRCRPPRLPRPRPRPTVVPRP | -0.127 |
| RRIRDRPPRLPRPRPRPSQVPRP | -0.426 |
| RRIRQRPPRLPRPRPRPMFLPRP | -0.38 |
| RRIRIRPPRLPRPRPRPVKSPRP | -0.0366 |
| RRIRMRPPRLPRPRPRPLERPRP | 0.00972 |
| RRIRCRPPRLPRPRPRPNRCPRP | 0.053 |
| RRIRCRPPRLPRPRPRPDVCPRP | -0.0548 |
| RRIRDRPPRLPRPRPRPDRSPRP | 0.0975 |
| RRIRTRPPRLPRPRPRPITRPRP | -0.0822 |
| RRIRQRPPRLPRPRPRPHSAPRP | -0.0562 |
| RRIRRRPPRLPRPRPRPLFCPRP | 0.24 |
| RRIRSRPPRLPRPRPRPILQPRP | 0.0824 |
| RRIRYRPPRLPRPRPRPRWTPRP | 0.2 |
| RRIRIRPPRLPRPRPRPNITPRP | -0.726 |
| RRIRPRPPRLPRPRPRPWRDPRP | -0.00123 |
| RRIRRRPPRLPRPRPRPHVSPRP | -0.0166 |
| RRIRIRPPRLPRPRPRPVTIPRP | 0.00236 |
| RRIRFRPPRLPRPRPRPRFKPRP | -0.281 |
| RRIRYRPPRLPRPRPRPPKCPRP | -0.813 |

| Sequence | shrunken log2 fold change |
| --- | --- |
| RRIRWRPPRLPRPRPRPPNWPRP | 0.603 |
| RRIRERPPRLPRPRPRPPSHPRP | -0.209 |
| RRIRNRPPRLPRPRPRPWAIPRP | -0.179 |
| RRIRFRPPRLPRPRPRPRNYPRP | -0.236 |
| RRIRTRPPRLPRPRPRPGWSPRP | 0.354 |
| RRIRYRPPRLPRPRPRPFCTPRP | -0.425 |
| RRIRYRPPRLPRPRPRPQPEPRP | 0.239 |
| RRIRERPPRLPRPRPRPYQMPRP | -0.448 |
| RRIRRRPPRLPRPRPRPLMLPRP | -0.108 |
| RRIRDRPPRLPRPRPRPHWWPRP | 0.272 |
| RRIRARPPRLPRPRPRPFWPPRP | 0.412 |
| RRIRHRPPRLPRPRPRPGMIPRP | -0.187 |
| RRIRCRPPRLPRPRPRPNRVPRP | -0.206 |
| RRIRTRPPRLPRPRPRPAECPRP | -0.112 |
| RRIRFRPPRLPRPRPRPTDQPRP | -0.0655 |
| RRIRSRPPRLPRPRPRPQCWPRP | 0.24 |
| RRIRTRPPRLPRPRPRPTREPRP | -0.157 |
| RRIRYRPPRLPRPRPRPSDSPRP | -0.191 |
| RRIRFRPPRLPRPRPRPKKVPRP | 0.102 |
| RRIRKRPPRLPRPRPRPFTVPRP | -0.00947 |
| RRIRWRPPRLPRPRPRPCEFPRP | -0.0211 |
| RRIRARPPRLPRPRPRPRLDPRP | 0.291 |
| RRIRSRPPRLPRPRPRPYSWPRP | -0.244 |
| RRIRTRPPRLPRPRPRPHEYPRP | -0.17 |
| RRIRHRPPRLPRPRPRPPDYPRP | 4.26 |

| Sequence | shrunken log2 fold change |
| --- | --- |
| RRIRLRPPRLPRPRPRPFGDPRP | -0.186 |
| RRIRQRPPRLPRPRPRPPISPRP | -0.187 |
| RRIRQRPPRLPRPRPRPSHNPRP | 0.547 |
| RRIRLRPPRLPRPRPRPIGFPRP | 0.0709 |
| RRIRMRPPRLPRPRPRPHIHPRP | -0.111 |
| RRIRSRPPRLPRPRPRPEEAPRP | 0.983 |
| RRIRRRPPRLPRPRPRPKFEPRP | 0.0131 |
| RRIRMRPPRLPRPRPRPNGHPRP | -0.00897 |
| RRIRFRPPRLPRPRPRPFLMPRP | -0.263 |
| RRIRSRPPRLPRPRPRPVLFPRP | -0.0544 |
| RRIRERPPRLPRPRPRPDNDPRP | -0.259 |
| RRIRDRPPRLPRPRPRPIKSPRP | -0.236 |
| RRIRFRPPRLPRPRPRPRIVPRP | -0.267 |
| RRIRMRPPRLPRPRPRPITPPRP | 0.0378 |
| RRIRIRPPRLPRPRPRPPELPRP | -0.123 |
| RRIRLRPPRLPRPRPRPQDNPRP | -0.428 |
| RRIRARPPRLPRPRPRPRCSPRP | 0.205 |
| RRIRYRPPRLPRPRPRPTGVPRP | -0.0415 |
| RRIRLRPPRLPRPRPRPDGKPRP | -0.0351 |
| RRIRKRPPRLPRPRPRPILMPRP | 0.0297 |
| RRIRTRPPRLPRPRPRPHMQPRP | -0.249 |
| RRIRYRPPRLPRPRPRPHMKPRP | -0.489 |
| RRIRVRPPRLPRPRPRPKVCPRP | -0.0503 |
| RRIRMRPPRLPRPRPRPVFGPRP | 0.411 |
| RRIRFRPPRLPRPRPRPGWAPRP | 0.187 |

| Sequence | shrunken log2 fold change |
| --- | --- |
| RRIRHRPPRLPRPRPRPNAIPRP | 0.0158 |
| RRIRARPPRLPRPRPRPVTWPRP | 0.291 |
| RRIRDRPPRLPRPRPRPFTDPRP | 0.00624 |
| RRIRIRPPRLPRPRPRPANTPRP | 0.027 |
| RRIRTRPPRLPRPRPRPNSYPRP | -0.188 |
| RRIRSRPPRLPRPRPRPPYRPRP | -0.119 |
| RRIRLRPPRLPRPRPRPDHAPRP | 0.0162 |
| RRIRNRPPRLPRPRPRPACSPRP | 0.0895 |
| RRIRHRPPRLPRPRPRPENWPRP | 0.147 |
| RRIRTRPPRLPRPRPRPIEEPRP | 0.0678 |
| RRIRARPPRLPRPRPRPNTPPRP | -0.00444 |
| RRIRTRPPRLPRPRPRPNPNPRP | -0.306 |
| RRIRMRPPRLPRPRPRPNIFPRP | -0.0848 |
| RRIRLRPPRLPRPRPRPFIIPRP | -0.271 |
| RRIRNRPPRLPRPRPRPSEHPRP | -0.159 |
| RRIRNRPPRLPRPRPRPPGTPRP | 0.241 |
| RRIRDRPPRLPRPRPRPTWLPRP | 0.909 |
| RRIRIRPPRLPRPRPRPRTNPRP | -0.159 |
| RRIRCRPPRLPRPRPRPIGLPRP | 0.00863 |
| RRIRQRPPRLPRPRPRPEQIPRP | -0.0247 |
| RRIRGRPPRLPRPRPRPFRPPRP | 0.021 |
| RRIRPRPPRLPRPRPRPAYTPRP | -0.116 |
| RRIRMRPPRLPRPRPRPLCIPRP | 0.21 |
| RRIRKRPPRLPRPRPRPLFDPRP | -0.0965 |
| RRIRPRPPRLPRPRPRPNVPPRP | -0.11 |

| Sequence | shrunken log2 fold change |
| --- | --- |
| RRIRCRPPRLPRPRPRPFMSPRP | 0.0579 |
| RRIRKRPPRLPRPRPRPVKDPRP | 0.0491 |
| RRIRARPPRLPRPRPRPCKDPRP | 0.0511 |
| RRIRVRPPRLPRPRPRPDTMPRP | -0.177 |
| RRIRVRPPRLPRPRPRPPTWPRP | 0.0832 |
| RRIRGRPPRLPRPRPRPLYHPRP | 3.13 |
| RRIRFRPPRLPRPRPRPPYNPRP | -0.323 |
| RRIRIRPPRLPRPRPRPSQKPRP | -0.187 |
| RRIRYRPPRLPRPRPRPFDMPRP | -0.195 |
| RRIRGRPPRLPRPRPRPCKVPRP | 0.00141 |
| RRIRARPPRLPRPRPRPTYQPRP | -0.163 |
| RRIRSRPPRLPRPRPRPIVNPRP | -0.259 |
| RRIRARPPRLPRPRPRPFNAPRP | -0.307 |
| RRIRGRPPRLPRPRPRPKMYPRP | 0.107 |
| RRIRQRPPRLPRPRPRPVLTPRP | 0.0694 |
| RRIRLRPPRLPRPRPRPPWPPRP | 0.578 |
| RRIRLRPPRLPRPRPRPNRDPRP | -0.124 |
| RRIRCRPPRLPRPRPRPQKKPRP | -0.0243 |
| RRIRNRPPRLPRPRPRPECKPRP | 0.0615 |
| RRIRVRPPRLPRPRPRPWATPRP | -0.122 |
| RRIRYRPPRLPRPRPRPRSNPRP | 0.00328 |
| RRIRFRPPRLPRPRPRPMKKPRP | -0.0398 |
| RRIRYRPPRLPRPRPRPASMPRP | 0.0167 |
| RRIRRRPPRLPRPRPRPVACPRP | 0.41 |
| RRIRHRPPRLPRPRPRPDKKPRP | -0.0244 |
